{"source": "the NTF2 design screens of Basanta et al. (2020)"}
{"assay": "protease stability score; higher = more stable; yeast display proteolysis, trypsin and chymotrypsin;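 further: log10 excess protease needed over predicted unfolded state with 0 meaning unfolded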"}
{"sequence": "DEDELAQKLVEQMVKAIRHGDPHDFVKMIDKNATMDVGDKRLHGREKLEEFIKKLVDKYDHLDAKVSHMDLDNGQIKVNIEIHLVKNGKTDHITLDARADVTNGDARFVDFQWR", "protease stability score": 1.47}
{"sequence": "DEDELQRFAEQVNRVVRQGDPKQAERLFDENARVQIGDKTYHGREDISKMIENQRRRVDHIKVRRIDVQGNELVIHLVYNVNGQEHRNVLVFELHNGKIESAHRTDG", "protease stability score": 0.959}
{"sequence": "DEDEMKNVLELIRVMSKGDEDRIRERADPNVKVNIGDKRLQGREELARQASTEKKKMDIHIRVDSVHVHDGNVLIVYKRENHYNGEPNRDEQRFQAQASNGNLKNMSWRFDEDKKRKIET", "protease stability score": -0.038}
{"sequence": "DEDENNKILESINTNDSKHNKDLLDKDVTIRYGDKQVQGREEALEFLDTWNKRVDHFRVHHMTVKGDKLRMRFEIVFNGVTVEVSLSAKVENGRMKHFHLDARDEKVRHRLKRMFG", "protease stability score": 0.108}
{"sequence": "DEDEQKVAKTFVEAVRQGDEKQIDDLADPNVRLRVGDKTLHGRDQLREHVRQMKEELKVEWSVQHVDFSDGRARIHAEMRVDVNGKPVTDDVTFFIEVKNGKVKNVEIHMDESVKREAEQ", "protease stability score": 0.548}
{"sequence": "DEDEQRKIDETMHRLMEENNFDQLARTADENVRIVIGDKTYRGREQAVSAFRKLREHVDHADVKSVEIRNGRVLIKARLSFNGRTADVVFTFQFTNGRIQWAEVDPHAVRNARE", "protease stability score": 1.06}
{"sequence": "DEDEQRTLVEQLARAIQQGDEDQVRKLADPNAKARYGDHEIHGHDQLAHVVRQLKDQVDSIEVESFSVRNGRAELDIRFDVNGRDVKITINAEIRNGRMKHVEFQYTNEDQEKTANR", "protease stability score": 0.948}
{"sequence": "DEDERAEKMARTAQEILETGDEEKAKRLFPPNARAKVGDRTYHGREDIVKHLKELWDRADHVRVEIKSFRVRGDNVHVVMTLVFTYNGKNETQQLTMIFVHVNGRQVAQDMKIG", "protease stability score": 0.671}
{"sequence": "DEDERQDLARKYNKALKQGDSKKFEELVDKHVKVEVGETRFHGREQASKNFRELVDNFDEFEVKSLEVHGESVTVEAVARINGRTANIRFQRTIHNGKNQVVKLNPDDMRRNLK", "protease stability score": -0.134}
{"sequence": "DEDETAKRVNDKAREAAETNNPKQFEELADPNVRMVIGDKEWRGRRQLSHWYKEMADRADHMQVDYQDVHVSGDKVTLHVQINLESNGHSEIKTLIVVMVVHNGRLRAQSQWEQ", "protease stability score": 0.534}
{"sequence": "DEDEVEKIATTIKDVIQEGNFRQLEKLADPNAKVVIGDKTYRGRDAMRHAAQLLQQRADHITVQTVHVHGNKVEAHLRATVNGRDVHFVVKVTLENGRIKNMKIEYTDEDKFKEMVG", "protease stability score": 1.31}
{"sequence": "DEDEVKEVLKRIKSNDWHTLAKQADENARAVVGDKTYHGRTQMKKWMDKVRKRVDHIEISKVKQEGDKAVVDLVFQVNGVKVHLVIYIHVHNGKVVDVQAKARNEEELHKLKKAVS", "protease stability score": 0.331}
{"sequence": "DEDEVRKAKKYIENWEQGNPKDLQEQADENASAQYGDKRIHGMTKIAKFVHKEHEESRVEIQDVQIEAHNGTVHIEIRAIFDHNGKPSQKKVFMSMTMHNGKVKDAELHSDK", "protease stability score": 0.155}
{"sequence": "DEDEVRKIAEDVLRIIETGNPDDAMEQADENAEVIVGDKTYSGRTELRKVIHHMREKVDHMQVKSYDAHGNKATAVFILDNNGRKDEHVVYFDFHNGRLKKVNIQKK", "protease stability score": 0.243}
{"sequence": "DEDEWRKIWTVFENNDPRKFKTMVDKHAHAEVGDTEFHGREQIQHYFERLIRRVDHIEYKSVNIHGDKMRAEVVLNVDGQNLRYVYEVTVHNGRIKMMRIRFTDEEVERQMKRIVK", "protease stability score": 0.209}
{"sequence": "DEDEYAHQVAQELRKAMETGDSDRIARLFDENAELRVGDKVWHGRDQIRKYWHEWLRRADTVDVKIDEVDVEGDKARAHIRVRAEDNGRHQEFTVKMTLKNKNGRAKITSMHVS", "protease stability score": 1.57}
{"sequence": "DEDFDTQLEEMLKNILNGNTEEIDKYADPNVKLEVGDHEYHGREHVKENWKEELDHMDVEVKSVHISARDGRAHVNLEFVVNIDGRPRHVKVREEFVWKNGKLKRANRHFSEEVKRQLER", "protease stability score": 0.677}
{"sequence": "DEDFMNKFEELLRNQQTGDPQFVADQADPNARWNVGDKQLHGRHQIRHQAKTESDQMEVQIDRMDVKVQNGHIDARINRQSNENGRPSRNELDQTVHYHNGKLKQLDESTSH", "protease stability score": -0.44}
{"sequence": "DEDFWERVESMLRLWKHGNEDEWSKNADPNVRYVYGEKVVTGREQAKHMFRKVKDEIRFTFEFKRVRIQGDTIEAKFEFRADRNGKPRSANATVTIRFEGDKVHDNDVKSQS", "protease stability score": 0.42}
{"sequence": "DEDFWRRLVTLMQKNDFDQLARLVDPNAEVTVGDKTYEGRENIQKMWHKLKKQFDHYEIKTYRVKGDKLDMDYVFVVNGQQVRAKVEMRVHNGRLVELRFDARNPDELDTVRRILS", "protease stability score": 1.55}
{"sequence": "DEDHASRQAKKFIDAMRSGDEELAKNLVDKDVTAIYGDRTVNGREQVMKMVKEFRNQADEITVDDMKVKNGRVVIHLKMDINGEQEVVIVILDIRNGRAKEISFERR", "protease stability score": 1.27}
{"sequence": "DEDHDVRVAENLLEAIRTGNEDEVTRLADENAELEIGDHRYHGREQVSSAAKRINDRADDISINEVHYTGDKLSVQMQMNVNGKNIVVDVVVVAHNGRVKTVRFQYTSEEDFKKFES", "protease stability score": 0.538}
{"sequence": "DEDHEAQRFFDHFEEVVQTGDPDQAKQLIDKNATAKYGDQEYHGWEDVHKHWLRLRRQADHIKFEVDDVRATNGRYEIQFVVIIDTNGNENTRRYRLQAQEDNGRLRVQNLTQQ", "protease stability score": 1.49}
{"sequence": "DEDHESRVVELLEEIVRKGDPDEVRRQADPDARVDYGDKRLHGRDFRKAAKIIEEMRVDHQQFTTYKTHNGRAQMLVTVEHNGERRDIQIIVHYRGDKMKEMRFDTG", "protease stability score": -0.224}
{"sequence": "DEDHIKTHAEELMNALSRGDEKRFVDLVDPNARFRIGDKEYKGSEQLHTLMREIHTEVDHIEVRHLRVRNGQVQATIRYDINGKTRSMTIHFEVENGRVKHMEVSSQ", "protease stability score": 1.3}
{"sequence": "DEDHKAREMMRRWEHNWRTGDPNKLANQFDPNATWDVGDHTIKGREQYAEQIKRNMEQADDVHITVKDVKREGETIVVRFHDVQNHNGQNRVTIVNARFFDDNGSFVMVSFKQE", "protease stability score": -0.321}
{"sequence": "DEDHLHRLVKEMVKVLQQGDPDRFMELADKDATAVIGDKRFHGRTQARKAVKEFTDTVDHIRIKTFNAHGDKVTIVVRLDHNGKNAILRIEFQVDNGRFKEVVFDPDHLQDLRR", "protease stability score": 0.071}
{"sequence": "DEDHLKDANRRVVHALEHGDPDEFMNMADKDVQIEIGDTVVEGSHKLKEWAEDLHNRVDHIEILKVDLQGDTLNLNVRMRSNGHNRNAVLHVRVHNGKIQSLRMKDN", "protease stability score": 0.55}
{"sequence": "DEDHLKKFVSDLQHNSHERLSKQADENAEMEVGNKTYSGREQFSHFAQQQYHRADHFTIDRVEIRNGHITLEAVMVVDGHKIRFSAHAELHNGRLKFYVMKATNEDLVRQMNRLNN", "protease stability score": 0.701}
{"sequence": "DEDHLRKLKEYVKNYNKGDPDKLDEYLDPNVRINVGDHTVHGMDEHNKQAEERTRNMRIQLRRVDVKARNGQLKATINAEAEVNGRPATLHADITVKMHNGKVKNIHVRMPEDYKREREK", "protease stability score": 0.008}
{"sequence": "DEDHMRTLIQRFIEAVQKGDEEQIKRLADPNARMRVGEREIHGREEIAKEIKDIRDQVDHINIRTWSFHNGEAHLEVEYNHNGQHRTMKLRIVVRNGKLQELEWRKG", "protease stability score": 2.39}
{"sequence": "DEDHNRRLAHTIVEILRTGDPDKMNEQLDPNARAHYGDHEIHGRENVAKMVKELHDRVDHFTVKTYDADGDHITIELVMKVNGRNVEMTVVVRVRNGRLVDLRYRYTSEEQEKTEKE", "protease stability score": 2.12}
{"sequence": "DEDHNRRVAKRFIEAVLSGDPEQAKRNADKHVKLQVGDKEYRGRDDLKTWIEQVSTRADHNQIHSMSVSGNRMNVDVKFNHNGRRERTVIRVEVENGKVKKVEVHSG", "protease stability score": 0.975}
{"sequence": "DEDHQAEKIFRDLVEAFKNGDEKRAEELFDPNARLQYGDKTYHGRKAASRLVSHVRTEFDHVDWQIKSVTRTGDKIDIDVDATADHNGHQDKFKIIITLKVTNGKAVLKEVRFK", "protease stability score": 1.94}
{"sequence": "DEDHRERLANHAVEAFQDGDPQQMEELADEDARAEVGDKELTGRERISKMVKTIADNVDHIELKSYEKTGDTVRFHMVLDDNGKQKRLVLVVRIHNGRLKELRIQQS", "protease stability score": 1.53}
{"sequence": "DEDHVQDKAEDLARAIQRGDEDRMNELFDENVKVQVGDKTIHGRENVVDHMREQNEQADRIEIKSITATGDKIRIEMVVVHNGQNTHVVFEVKWENGKIKHMTQKTE", "protease stability score": 1.94}
{"sequence": "DEDINKMVKEFIRNMQNGNHSRLAQLADPNARVQIGDKTLHGREDLERHVRELTERSRVEYKSVDVKVHNGRAHLHLDVVVHHNGRPQRSRVQAVFTAQGDKIKDIRVESNQ", "protease stability score": 0.116}
{"sequence": "DEDIRRHVKEFIEALRTGNEDQLRTLADKNVRFEYGDKEIHGRETYAKHVKKLKEESSIEIKDYKVTAQGNTVSAKIRQVVNHNGKPQHHVVILQAVFHNGKLKEMRTKDDG", "protease stability score": -0.26}
{"sequence": "DEDITEAVRRLEKAREDGDPNKVRELLPEDARAQYGDKTYHGRDEVAKYRETEMKQMTVQMNIRSVENHNGRADIEFEVTREHNGKPTHDHNRATILAHNGKIKVIEIHSTK", "protease stability score": -0.422}
{"sequence": "DEDKAKEFMRKALHILLEGDPDKFVRMADKDAHIQVGEHTVHGREQVRKFIQELQDKVDHNDVVDYEVRPNHANIEFQMNVNGRTVRMRVRLEFKNGKFKRATFDPDDVRKLHT", "protease stability score": 1.33}
{"sequence": "DEDKARRLAEKLFEYMMKGKKDEAKKFLDPDVRYEYVDETVEGPKVAEHVVRKIRKLGMKVETKEMEIRGDKARAVFVYRNGDNQVETTVEAQYEGDKLKEVRVELTDEVKKQVTQG", "protease stability score": 0.804}
{"sequence": "DEDKARRVMEKLFKIVKNGNKDEMKKMGKPNVQYTYVDKRYEGEEAAKKDVEIDKEVGARVQERELEVKGDTVKAVFQYQQGDTTVQTHVEAHYEGDKVKEVKVELTEEVQKIVEQG", "protease stability score": -0.248}
{"sequence": "DEDKEAEKLVKEMQENQRQGDEEKWANLFDEDAHFRIGDKHLHGRQDLQDNVRKWRHNYDHLSVRMKDLKHDGDKARLHVVITQRHNGKNDSMTVDIVIVKQNGRVRIKNFQAP", "protease stability score": 0.513}
{"sequence": "DEDKEAKKAIDDWKKIIDTNDEDQARRMFDPNAKVTIGDKTYHGREQASTLFHQLMKRFDHMSFHVDKVRVHNGQVDAVVTARFNHNGRTEEMRLRFRFDDHNGQLVIVQIDWE", "protease stability score": 1.35}
{"sequence": "DEDKEAREIAKKIARDLNRGNQEEVVKQFDPNVRLNIGDKEVTGREEVRKEVKKVQQKFDHADIRIRDYRSEGDSANLDFYLTLTHNGRHDKRRWTLHLENHNGRYIVKHVQHN", "protease stability score": 0.028}
{"sequence": "DEDKEDRVRTWVEAQKTGDPDKAKENADPNVRVEYGDKTIHGMSEIVKHIKREKHESRRTIDSYSVSASGDHITVRIDMHVKHDGQPRRKDYTETIVIRNGKIRHIKRRDDK", "protease stability score": 0.36}
{"sequence": "DEDKEDRVVKTFLTAVRTGDPHTARNMLDENARVHIGEKNFHGKERASEAIKEFRDQVDEVHIRTIKVRGDRFNIDMTLHFNGKNADLTVNVRVHNGKIQDVQFDPDQMQHLQG", "protease stability score": 0.86}
{"sequence": "DEDKEIRKFIKNNKDILKNGDPREYVRQMDPNAKMQYGDKQVRGNDQLERHLHTKLKRIDSQSVDFKDVDLKGDKIRLRARRTYQFNGRTSSEEFVVVMTFTNGQARVHKINYK", "protease stability score": 0.103}
{"sequence": "DEDKEKKINKDIADAWQNGDEQQMQKQIPPEVRIQVGDKTVHGREHIHKWMRRWRERVDHLQLKDMTAHNGNMRIKFVIRHNGRQDVRQVHIQVDNGTVHTASFDTE", "protease stability score": 0.43}
{"sequence": "DEDKEQELAHHIISIIQTGNPDSFMNMADPNAKVNIGDTRLRGREQIVHFYREQFRQADNREVKDVRAHNGRITIDAVRNINGRNERYVVDIQIENGKATEINVRHT", "protease stability score": 0.045}
